Test: yeast display, Sf9 membrane polyspecificity reagent, FACS + sequencing; frameworks hold sequencing errors
Outline: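 Genes from sorted yeast were amplified by colony PCR, read by MiSeq 2 × 250 sequencing and filtered on CDR length. These cells carried a synthetic nanobody library in Saccharomyces cerevisiae BJ5465 and were sorted by FACS into low and high (top ~1%) gates on anti-HA and streptavidin fluorescence. Polyreactivity is labelled according to the gate of origin.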

Row | Sequence | polyreactivity (PSR sort gate)
1 | QVQLVESGGGLVQAGGSLRLSCAASGRTSRSYTMGWYRQSPGKERELVAAITRGGRTYYADSVKGRFTISRDNAKNTVYLQMNSLKPEDTAVYYCATDRVQSYGYWGQGTQVTVSS | low polyreactivity
2 | QVQLVESGGGLVQAGGSLRLSCAASGRTSSANVMGGYRQAPGKDRELVAAISWSGGSTYYADSVKGRFTISRDNAKNTVYLQMNSRKPEDTAVYYCAADYYKYYYGGDQLSITRYDYWGQGTQVTVSS | low polyreactivity
3 | QVQLVESGGGLVQAGGSLRLSCAASGRTSSSNAMGWYRQAPGKERELVATISRTGSTYYADSVKGRFTISRDNAKNTVYLQMNSLKPEDTSVYYCNRYFSEALLHGSCYNRYYYWGQGTQVTVSS | low polyreactivity
4 | QVQLVESGGGLVQAGGSLRLSCAASGRTSVINAMGWYRQAPGKERELVATITWSGASTYYADSVKGRFTISRDNAKNTLYLQMNSLKPEVTAVYYCATDSAQYGYDYWGQGTQVTVSS | low polyreactivity
5 | QVQLVESGGGLVQAGGSLRLSCAASGRTSVKYAMGWYRQAPGKERELVAAITYRGSSTYYADSVKGRFTISRDNAKNTVYLQMNSLKPEDTAVYYCAARPPLSGRYGYYYWGQGTQVTVSS | high polyreactivity
6 | QVQLVESGGGLVQAGGSLRLSCAASGRTSVLYAMGWYRQAPGKERELVAAISRDGSTNYADSVKGRFTISRDNAKNTVYLQMNSLKPEDTAVYYCAAEVRGSYYLTGYDYWGQGTQVTVSS | high polyreactivity
7 | QVQLVESGGGLVQAGGSLRLSCAASGRTSVRNAMGWYRQAPGKERELVAAISNGGRTNYADSVKGRFTISRDNAKNTVYLQMNSLKPEDTAVYYCAARGFWLYYHGGVRSGYDYWGQGTQVTVSS | high polyreactivity
8 | QVQLVESGGGLVQAGGSLRLSCAASGRTSVRYAMGWYRQAPGKERELVAAISWSGGSTYYADSVKGRFTISRDNAKNTVYLQMNSLKPEDTAVYDCNAQHARGYYYWGQGTQVTVSS | low polyreactivity
9 | QVQLVESGGGLVQAGGSLRLSCAASGRTSWVYAMGWYRQAPGKERELVASIRKRTVVYADSVKGRFTISRDNAKNTVYLQMNSLKPEDTAVYYCNADTTFYGYRTYRPENYWGQGTQVTVSS | high polyreactivity
10 | QVQLVESGGGLVQAGGSLRLSCAASGRTSYINAMGWYRPAPGKERELVAAITVRAGRTYYADSVKGRFTISRDNANKTVYLQMNSLKPEDTAVYYCAAGVSEGSGDLYYWGQGTQVTVSS | low polyreactivity
11 | QVQLVESGGGLVQAGGSLRLSCAASGRTSYRDAMGWYRQAPGKESEFVAAISKSGTSTYYADSVKGRFTISRDNAKNTVYVQMYRLKPEDTAVYYCAAITGVGLRVNSGIGFYYWGQGTQVTVSS | high polyreactivity
12 | QVQLVESGGGLVQAGGSLRLSCAASGRTSYWYAMGWYRQAPGKERELVAVISSGGSTYYADSVKGRFTISRDNAKNTVYLQMNSLKPEDTAVYYCNAVVGRWFPYNLSDYWGQGTQVTVSS | low polyreactivity
13 | QVQLVESGGGLVQAGGSLRLSCAASGRTVPYNAMGWYRQAPGKESELVAAISGRGGSTYYADSVKGRFTISRDNAKKTVYLQMTSLKPEDTAVYYCAARLPWSYYRTQGYNYWGQGTQVTVSS | high polyreactivity
14 | QVQLVESGGGLVQAGGSLRLSCAASGRTVRRYARGWYRQAPGKERELVATIRSGDNTNYADSVKGRFTISRDNAKNTVYLQMNSLKPEDTAVYYCNRSPKSGQVTYLYSVNAHYDYWGQGTQVTVSS | low polyreactivity
15 | QVQLVESGGGLVQAGGSLRLSCAASGRTVSYYAMGWYRQAPGKEREFVAAISSSGGSTNYADSVKGRFTISRDNAKNTVYLQMNSLKPEDTAVYYCNAGSGYTGVYRWYYWRYDYWGQGTQVTVSS | low polyreactivity
16 | QVQLVESGGGLVQAGGSLRLSCAASGRTYNGYVMGGYRQAPGTEREFVAVINWSGGNTYDADSVKGRFTISRDNAKNTVSLQMNRLKPDDTAVYYCAPRRVRSYAYDYWGQGTQVTVSS | high polyreactivity
17 | QVQLVESGGGLVQAGGSLRLSCAASGRTYRSNVMGWYRQAPGKERELVASITWSGGTTYYADSVKVRFTISRDNAKNTVYLQMNSLKPEDTAVYYCNAADERSQGWVGYDHWGQCTQVTVSS | low polyreactivity
18 | QVQLVESGGGLVQAGGSLRLSCAASGRTYVYNAMGLYRHAPGKERELVAGITNGGSTNYADSVKGRFTISRDNAKNTVYLQMNSLKPEDTAVYYCNRDVKVLYASSHSPYGYDHWGQGTQVTVSS | low polyreactivity
19 | QVQLVESGGGLVQAGGSLRLSCAASGRTYVYNAMGWYRQAPGKERELVAAISSSGGSTRYADSVKGRFTISRDNAKNTVYLQMNSVKPEDTAVYYCNRLRYSNRYDSWGQGTQVTVSS | high polyreactivity
20 | QVQLVESGGGLVQAGGSLRLSCAASGRTYYNNAMGWYRQAPGKEREFVAAISASGGRTRYADSVKGRFTISRDNAKNTVYLQMNSLKPEDTAVYYCAAAGTSTLYWGQGTQVTVSS | high polyreactivity
21 | QVQLVESGGGLVQAGGSLRLSCAASGRTYYYNAMGWYRQAPGKERELVAVISWDDGSTYYADSVKGRFTISRDKAMNSVYLQLNSLKPEDTAVYYCAAYDYLDYADDYWGQGTQVTVSS | low polyreactivity
22 | QVQLVESGGGLVQAGGSLRLSCAASGRWLYAMGWYIQAHGKERELVAAISRSGGSTNYADSVKGRFTISRDNAKNTVYLQMNSLKPEDTAVYYCAATPYSYYTYQPEGEYWGQGTQVTVSS | low polyreactivity

Row | Sequence | polyreactivity (PSR sort gate)
23 | QVQLVESGGGLVQAGGSLRLSCAASGRWLYAMGWYIQAPAKERELVAAISRSGGSTNYADSVKGRFTISRDNAKNTVYLQMNSLKPEDTAVYYCATKYNADTRYDYWGQGTQVTVSS | low polyreactivity
24 | QVQLVESGGGLVQAGGSLRLSCAASGSAYHYAMGWYSQAPGKERELVASITWRGDTTYYADSVKGRFTISRDNAKITVYLQMNSLKPEDTAVYYCAARKFFRQGGKRYDYWGQGTQVTVSS | high polyreactivity
25 | QVQLVESGGGLVQAGGSLRLSCAASGSFFVDDAMGWYRQAPGKERELVATISSDVSTYYADSVKGRFTISRDNAKTTVYIQMNSLKPEDTAVYYCAATVSLHWAYSFSLYLEDDYWGQATQVTVSS | low polyreactivity
26 | QVQLVESGGGLVQAGGSLRLSCAASGSIAYNAMGCYRQAPGKERELVASIRASGGRTYYADSVKGRFTISRDNAKNTVYLQMNSLKPEDTAVYYCAAYAYNAIEYGYWGQGTQVTVSS | low polyreactivity
27 | QVQLVESGGGLVQAGGSLRLSCAASGSICAYAMGWYRQAPGKERELVASISTSTDITYADSVKGRFTISRDNAKNTVYLQMNSLKPEDTAVYYCAATYWQWWGWYDYWGQGTQVTVSS | high polyreactivity
28 | QVQLVESGGGLVQAGGSLRLSCAASGSICDDYAMGWYRQAPGKEWELVAAISSSGTSTYYADSVKGRFTISRDNAMYTVYLQMNSLKPEDTAVYYCSARSAILISGYLMDYWGQGTQVTVSS | low polyreactivity
29 | QVQLVESGGGLVQAGGSLRLSCAASGSICGWYVLGWYRQAPGKEMELVAAITWSAARTYYADSVKGRFTISRDNAKITVYLQMNSLKPEDTAVYYCAADHVSYQPSCRIFDYWGQGTQVTVSS | low polyreactivity
30 | QVQLVESGGGLVQAGGSLRLSCAASGSICRSYAMGWYRQAPGKERELVASITRSYGSTYYADSVKGRFTISRDNAKNTVYLQMNSLKPEDTAVYYCNAVVSKSRRFRVDYWGHGTQVTVSS | high polyreactivity
31 | QVQLVESGGGLVQAGGSLRLSCAASGSICVRNTMGWYRQAPGKERELVAAISSRGTSTYYADSVKGRFTISRDNAKNTVYLQMNSLKPEDTAVYYCAARVYPYNSWGQGTQVTVSS | high polyreactivity
32 | QVQLVESGGGLVQAGGSLRLSCAASGSICYSNARGWYRQAPGKERELVAAISFTGGTTYNADSVKGRFTISRDNAKNTVYLQMNSLKPEDTAVYFCNKLYHHYYGYWGQGTQVTVSS | high polyreactivity
33 | QVQLVESGGGLVQAGGSLRLSCAASGSIFAANTMGWYRQAPGKERELVATISWSSGRTRYADSVKGRFTISRDNAKNTVYLQMNSLKPEDTAVYYCAARYYYSRSRLYYYWGQGTQVTVSS | high polyreactivity
34 | QVQLVESGGGLVQAGGSLRLSCAASGSIFAAYTMGWYRQAPGKERELVAAISVSTVSTYYADSVKGRFTISRDNAKNTVYLQMYSLKPEDTAVDYCNADATDSYPEKDEHDSWGQGTQVTVSS | low polyreactivity
35 | QVQLVESGGGLVQAGGSLRLSCAASGSIFAAYTMGWYRQAPGKERELVATISSGGSTYYADSVKGRFTISRDNAKNTVYLQMNSLKPEDTAVYYCAAVIGNWQYQYYYWGQGTQVTVSS | low polyreactivity
36 | QVQLVESGGGLVQAGGSLRLSCAASGSIFADNAMGWYRQAPGKERELVAAITWSGGSTYYADSVKGRFTISRDNAKNTVYLQMNSLKPEDTAVYYCNADDAVEYSYGGGTEFYYWGQGTQVTVSS | low polyreactivity
37 | QVQLVESGGGLVQAGGSLRLSCAASGSIFADYAMGWYRQAPGKERELVAAITGSGGRTYYADSVKGRFTISRDNAKNTVYLQMNSLKPEDTAVYYCAVRHRYTRAYWGRDYWGQGTQVTVSS | low polyreactivity
38 | QVQLVESGGGLVQAGGSLRLSCAASGSIFADYAMGWYRQAPGKERELVAGISGRGGRTYYADSVKGRFTISRDYAKNTVYLQMNSLKPEDTAVYYCAAKYNYYTWPTRYTATGYYYWGQGTQVTVSS | high polyreactivity
39 | QVQLVESGGGLVQAGGSLRLSCAASGSIFADYVMGWYRQAPGKDRELVAAITRRGRTYYADSVKGRFTISRDNAKNTVYLQMNSLKPEDTAVYYCAKVGSGNIDSWGQGTQVTVSS | low polyreactivity
40 | QVQLVESGGGLVQAGGSLRLSCAASGSIFADYVMGWYRRAPGKERELVAAITRRGRTYYADSVKGRFTISRDNAKNTVYLQMNSLKPEDTAVYYCAKVASGKIDSWGQGTQVTVSS | low polyreactivity
41 | QVQLVESGGGLVQAGGSLRLSCAASGSIFAEYAMGWYRQAPGKERELVAAITTSGSTNYADSVKGRFTISRDNAKNTVYLQMNSLKPEDTAVYYCNALFQQRYLDSSGEYWGQGTQVTVSS | low polyreactivity
42 | QVQLVESGGGLVQAGGSLRLSCAASGSIFAFYAMGWYRQAPGKERELVAAITASGGRTYYADSVKGRFTISRDNAKNTVYLQMNSLKPEDTAVYYCAAVGGATYSWNGTFLYDYDYWGQGTQVTVSS | low polyreactivity
43 | QVQLVESGGGLVQAGGSLRLSCAASGSIFAFYAMGWYRQAPGKERELVAVISASGGSTYYADSVKGRFISRDNAKNTVSLQMNSLKPEDTAVYYCAAGTSTNSGTVPEEEDYWGQGTQVTVSS | low polyreactivity

Reference: the nanobody polyreactivity screen of Harvey et al. (2022)
